These results are taken from patent US20210087268A1 (YUHAN, published 2021).

The target in one assay is T1, CD112 (R&D Systems) (UniProt Q92692 32-360, limits assumed).
T1 sequence (looked up): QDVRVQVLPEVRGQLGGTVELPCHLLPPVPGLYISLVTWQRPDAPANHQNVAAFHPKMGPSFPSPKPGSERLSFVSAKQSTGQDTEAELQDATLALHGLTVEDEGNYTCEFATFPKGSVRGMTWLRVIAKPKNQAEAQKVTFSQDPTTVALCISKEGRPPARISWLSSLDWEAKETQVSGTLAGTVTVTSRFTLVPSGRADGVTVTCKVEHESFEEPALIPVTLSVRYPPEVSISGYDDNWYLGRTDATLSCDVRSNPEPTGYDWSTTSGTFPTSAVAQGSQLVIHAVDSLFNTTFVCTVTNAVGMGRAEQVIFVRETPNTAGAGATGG
The assay is described as follows: ELISA, antigen coated at 100 ng/well, 30 ng antibody per well (one amount), absorbance 450 nm. As for the experimental part: (§1) The binding of the anti-TIGIT antibodies to TIGIT superfamilies such as CD96 (Sinobiological), CD155 (Sinobiological), CD112 (R&D Systems), CD113 (R&D Systems) and CD226 (R&D Systems) antigens was identified by ELISA in order to determine the TIGIT specificity of the anti-TIGIT antibodies screened by phage display screening. Six types of antigens including TIGIT were coated at 100 ng/well on a 96-well plate, treated with 30 ng of each screened antibody and incubated at room temperature for 1 hour. After washing three times with TBST, 30 μL of TBST (5% BSA) diluted at 1:3,000 with an anti-human Fab-HRP secondary antibody (Jackson) was added to each well and incubated at room temperature for 1 hour. After washing three times with TBST, 30 μL of the resulting TMB solution was added to each well. After ceasing the reaction with 1N H₂SO₄, color development was determined at an absorbance of 450 nm. The binding of the selected antibodies to the six antigens was identified. As a result, it can be seen that all the antibodies specifically bound only to the TIGIT antigen (FIG. 2).
(In general: In an ELISA, binding on a coated surface is turned into a signal by an enzyme label.)

The target of a further assay is CD113 (R&D Systems) (UniProt Q9NQS3 58-404, limits assumed). The assay is described as above. As for the experimental part: as §1
CD113 (R&D Systems), sequence (Q9NQS3 58-404 limits assumed): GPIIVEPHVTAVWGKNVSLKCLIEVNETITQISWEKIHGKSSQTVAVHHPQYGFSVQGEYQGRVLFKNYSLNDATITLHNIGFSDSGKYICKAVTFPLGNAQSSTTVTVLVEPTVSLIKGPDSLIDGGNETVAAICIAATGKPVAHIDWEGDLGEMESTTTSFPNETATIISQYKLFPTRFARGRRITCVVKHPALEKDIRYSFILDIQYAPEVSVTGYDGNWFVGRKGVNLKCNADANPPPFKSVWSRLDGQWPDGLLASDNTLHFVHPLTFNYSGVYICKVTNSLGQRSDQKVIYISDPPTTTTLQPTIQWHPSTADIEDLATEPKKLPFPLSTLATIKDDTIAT
The next assay has as its target T2, CD226 (R&D Systems) (UniProt Q15762 19-247, limits assumed).
T2 sequence (looked up): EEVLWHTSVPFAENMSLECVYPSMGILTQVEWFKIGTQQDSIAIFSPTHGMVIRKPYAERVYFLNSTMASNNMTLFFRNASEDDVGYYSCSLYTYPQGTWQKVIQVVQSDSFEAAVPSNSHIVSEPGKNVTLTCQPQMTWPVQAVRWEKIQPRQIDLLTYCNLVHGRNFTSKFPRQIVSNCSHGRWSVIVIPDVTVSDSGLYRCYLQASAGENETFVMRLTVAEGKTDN
The assay is described as above. As for the experimental part:
as §1

The target in assay [1] is T3, CD155 (Sinobiological), ELISA antigen (UniProt P15151 21-343).
T3 sequence (looked up): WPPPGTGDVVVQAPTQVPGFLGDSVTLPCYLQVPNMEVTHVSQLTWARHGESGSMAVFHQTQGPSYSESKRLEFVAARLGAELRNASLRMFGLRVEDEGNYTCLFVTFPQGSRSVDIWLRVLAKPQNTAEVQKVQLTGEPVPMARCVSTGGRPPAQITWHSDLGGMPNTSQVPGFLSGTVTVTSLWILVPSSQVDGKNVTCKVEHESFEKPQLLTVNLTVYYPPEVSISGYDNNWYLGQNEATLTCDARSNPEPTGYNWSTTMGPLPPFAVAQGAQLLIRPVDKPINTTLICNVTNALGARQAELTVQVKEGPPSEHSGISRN
The description is as above. As for the experimental part: as §1

Another assay addresses T4, CD96 (Sinobiological) (UniProt P40200-2 22-503, limits assumed).
T4 sequence (looked up): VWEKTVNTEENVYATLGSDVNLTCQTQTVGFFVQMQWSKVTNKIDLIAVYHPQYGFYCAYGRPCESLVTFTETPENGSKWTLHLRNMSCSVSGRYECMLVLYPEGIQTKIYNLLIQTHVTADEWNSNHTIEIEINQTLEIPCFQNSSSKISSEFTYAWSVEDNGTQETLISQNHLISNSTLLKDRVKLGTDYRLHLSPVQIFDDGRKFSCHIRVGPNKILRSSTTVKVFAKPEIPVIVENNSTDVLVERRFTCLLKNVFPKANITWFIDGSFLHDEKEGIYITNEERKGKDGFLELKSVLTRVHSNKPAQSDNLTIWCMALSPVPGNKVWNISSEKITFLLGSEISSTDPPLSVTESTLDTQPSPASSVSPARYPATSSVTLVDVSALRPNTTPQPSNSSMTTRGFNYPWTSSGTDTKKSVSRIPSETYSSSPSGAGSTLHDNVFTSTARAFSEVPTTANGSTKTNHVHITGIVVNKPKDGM
The assay is described as above. The protocol:
as §1

Assay [2] deals with T5, mouse TIGIT (R & D Systems), ELISA antigen (mouse, UniProt P86176 29-148, limits assumed).
T5 sequence (looked up): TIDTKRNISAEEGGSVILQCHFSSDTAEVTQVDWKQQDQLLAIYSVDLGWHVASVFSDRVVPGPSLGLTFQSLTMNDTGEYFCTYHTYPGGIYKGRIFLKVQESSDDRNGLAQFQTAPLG
The experiment in a line: ELISA, antigen coated on the plate, 30 ng antibody per well (one amount), absorbance 450 nm. From the text: In order to determine the species cross-reactivity of the anti-TIGIT antibodies screened by phage display screening, whether or not the anti-TIGIT antibodies bound to human TIGIT (R&D Systems), mouse TIGIT (R & D Systems) and rhesus TIGIT antigens was identified by ELISA. The rhesus TIGIT antigens used herein were expressed and purified in the form of Fc-fusion by gene synthesis with reference to the Rhesus TIGIT gene sequence (NCBI accession No. XP_014985303.1). Each of three types of the TIGIT antigens diluted at a concentration of […] in PBS was added at 30 μl/well to a 96-well plate and incubated overnight at 4° C. to induce coating. Then, 30 ng of the screened antibody was bound to the TIGIT antigen, and 30 μL of a TBST (5% BSA) solution diluted at 1:3,000 was added to each well and incubated at room temperature for 1 hour. After washing three times with TBST, 30 μL of the TMB solution was added to each well to induce color development. After ceasing the reaction with 1N H₂SO₄, color development was determined at an absorbance of 450 nm. The species cross-reactivity of the screened antibodies bound to […] of antigens was identified (FIG. 1).

B1: F04 (IgG1 form) (antibody, V domains shown)
VH: EVQLLESGGGLVQPGGSLRLSCAASGFTFSSYYMSWVRQAPGKGLEWVSSIGSYYTYYADSVKGRFTISRDNSKNTLYLQMNSLRAEDTAVYYCARSSYSGGNGYYYYAYAFDYWGQGTLVTVSS
VL: EIVLTQSPGTLSLSPGERATLSCRASQSVSSSYLAWYQQKPGQAPRLLIYGASSRATGIPDRFSGSGSGTDFTLTISRLEPEDFAVYYCQQGYHRYATFGQGTKVEIK
With B1, the binding result in the assay with CD112 (R&D Systems) is recorded as “no binding (tested: 30 ng per well)”; with CD113 (R&D Systems), “no binding (tested: 30 ng per well)”; with CD226 (R&D Systems) it was “no binding (tested: 30 ng per well)”; in assay [1], “no binding (tested: 30 ng per well)”; in the assay with CD96 (Sinobiological), “no binding (tested: 30 ng per well)”; in assay [2], “binds”.

B2: S64 (IgG1 form) (antibody, V domains shown)
VH: EVQLLESGGGLVQPGGSLRLSCAASGFTFSNYAMSWVRQAPGKGLEWVSAIYPGGGSIYYADSVKGRFTISRDNSKNTLYLQMNSLRAEDTAVYYCAKAIRTCSLSHCYYYYGMDVWGQGTLVTVSS
VL: QSVLTQPPSASGTPGQRVTISCSCSSSNIGNNAVSWYQQLPGTAPKLLIYYDSNRPSGVPDRFSGSKSGTSASLAISGLRSEDEADYYCGSWDYSLSAYVFGGGTKLTVLG
With B2, the binding result was “no binding (tested: 30 ng per well)” with CD112 (R&D Systems); “no binding (tested: 30 ng per well)” with CD113 (R&D Systems); “no binding (tested: 30 ng per well)” with CD226 (R&D Systems); “no binding (tested: 30 ng per well)” in assay [1]; “no binding (tested: 30 ng per well)” in the assay with CD96 (Sinobiological); “binds” in assay [2].
